Test results: patent publication US12510548B2, “Method of determining toxicity of an immunomodulatory drug for use in humans” (The Jackson Laboratory, priority 2017, dated 2025)
Where two headings read alike, the source gives them in different places.

Experiments:
NK cells = conditions: cited from earlier work
hPBMC humanized NSG mice [1] = assay: Human cytokine release in sera of hPBMC humanized NSG mice after drug injection (BD CBA Th1/Th2 II kit); conditions: mouse, in vivo
Protocol: PBMCs of nine […] different donors were used to produce humanized NSG mice for these experiments. On day 6 of hPBMC engraftment (2×10^7 PBMCs/mouse), the mice were induced for human cytokine release by i.v. injection with antibodies OKT3 (anti-CD3 mAb; BioLegend, Cat. No. 317302) or ANC28.1/5D10 (also referred to as “ANC28”, “anti-CD28 mAb,” or “anti-CD28”; Ancell, Cat. No. 177-824). PBS buffer served as a negative control. The mice were bled at 2 and 6 hours, sera were collected and analyzed for cytokine concentrations using BD Cytometric Bead Array (CBA) Human Th1/Th2 Cytokine kit II (BD, Cat. No. 551809) (See, FIGS. 5A-5F).
FIGS. 5A-5F depict multiple graphs of concentration of different cytokines (i.e., IFN-γ, IL-6, IL-2, IL-10, IL-4, and TNF, respectively) measured at 2 and 6 hours after injection of antibodies OKT3 (anti-CD3 mAb) and ANC28 (anti-CD28) into sets of humanized mice for nine (9) different donors. Mice were i.v. injected with 0.5 mg/kg OKT3 or 1 mg/kg anti-CD28, and 5 ml/kg PBS (a negative control). Mice were bled at 2 and 6 hours and circulating cytokine concentrations were measured by BD CBA Th1/Th2 II kit.
To do so, a high number of PBMCs (i.e., 5×10^7/mouse) was engrafted into the humanized NSG mice. On day 6, the mice received the drug and a cytokine release profile was determined. Here, the IFN-γ and Il-10 levels were evaluated as in the above-mentioned experiments using 2×10^7 PBMCs/mouse.
On day 6 after engraftment, the mice received the immunotherapeutic drug (mAb) and a cytokine release profile was determined in these three groups of mice. Mice were bled at 2 and 6 hours and circulating cytokine concentrations were measured by BD CBA Th1/Th2 II kit. FIGS. 10A-F depict the cytokine levels after drug injection in donor 309 humanized NSG mice engrafted with 2×10^7, 3×10^7, or 4×10^7PBMCs/mouse. FIG. 10A depicts the INFγ level for each group of mice. FIG. 10B depicts the IL-10 level for each group of mice. FIG. 10C depicts the IL-6 level for each group of mice. FIG. 10D depicts the IL-2 level for each group of mice. FIG. 10E depicts the IL-4 level for each group of mice. FIG. 10F depicts the TNF level for each group of mice.
In this study, the inventors examined different concentrations of […]® (pembrolizumab) to determine if there is dosage dependence in the CRS in humanized mice. 6-week old female NOD.Cg-Prkdc^scid Il2rg^tm1Wjl/SzJ (NSG, JAX stock number 005557) mice were irradiated with 100cGy X-ray at least 4 hours prior to human PBMCs engraftment. The PBMCs in these experiments were from donor 358. Purified/isolated human PBMCs were intravenously injected into the mice at 3×10^7 cells/mouse. Six days after PBMC engraftment, mice were iv injected with PBS (negative control), 0.5 mg/kg OKT3 (positive control), 2.5 mg/kg, 5 mg/kg, or 10 mg/kg […]®. There were 5 mice per group. These […]® dosages are in the range of dosages studied in clinical trials discussed on the U.S. prescribing information for […]®. Few adverse effect reports of severe cytokine release syndrome after […]® administration have been documented. Mice were bled at 2 and 6 hours and circulating cytokine concentrations were measured using a BD CBA Th1/Th2 II kit. As shown in FIGS. 12A-F, the level measured after injection of the positive control OKT3 was very high for each of IFN-γ, IL-10, IL-6, IL-2, IL-4, and TNF. […]

hPBMC humanized NSG mice [2] = conditions: mouse, in vivo
Description: The clinical score in the mice was monitored by performing the signs and the grading of scores as follow: Score: 0=normal activity; 1=normal activity, piloerection, tiptoe gait; 2=hunched, reduced activity but still mobile; 3=hypomotile but mobile when prompted; 4=moribund (point of death). Mice with a clinical score of 4 were euthanized.
As in a reference by Brady et al., Clinical & Translational Immunology, 2014, the inventors performed the signs and the grading of scores as follow: Score: 0=normal activity; 1=normal activity, piloerection, tiptoe gait; 2=hunched, reduced activity but still mobile; 3=hypomotile but mobile when prompted; 4=moribund (point of death). Mice with a clinical score of 4 were euthanized.

human PBMCs = assay: In vitro PBMC assay of cytokine release (drug-coated plate); format: cell-based; conditions: donor 213; anti-CD28 10 μg/well, OKT3 1 mg/ml; supernatant day 2
Protocol: Day −1: Coated the plate with drugs: dilute drug (e.g., an antibody) in PBS; leave plate open under hood.
Day 0: Process PBMCs from each donor. PBMCs were from donor 213, 309, 345, or 366. Thaw PBMCs in supplemented RPMI and wash once. Count cells and re-suspend in supplemented RPMI at 1×10^6 cells/ml. Wash coated wells twice with 200 μl PBS and then once with 200 μL supplemented RPMI. Plate 100 μl of cells in each well (for a total of 1×10^5 cells per well).
Day 2: Harvest supernatant from each well and measure the cytokine level using a BD CBA Th1/Th2 II kit.
The two methods for determining cytokine release levels after a drug treatment were compared for treatment of PBMCs from four different donors with an anti-CD28 antibody (Ancell, Cat. No. 177-824). For the in vitro assay, anti-CD28 was dosed at 10 μg/well in the 96 well plates. For the in vivo method, anti-CD28 was dosed at 1 mg/kg. Supernatants of the in vitro PBMC culture wells and serum from the mice were collected and cytokine levels were measured. Antibody OKT3 (0.5 mg/kg for the in vivo assay or 1 mg/ml for the in vitro assay) was used as a positive control and either PBS or isotype antibodies were used as negative controls in the in vivo assay or the in vitro assay, respectively. The cytokine levels determined are presented in FIGS. 14A (IFN-γ and IL-10) and 14B (IL-6 and IL-4) as mean values±standard error of the mean (SEM).

non-humanized mice = assay: Administration of antibodies to non-humanized mice, cytokine responses; conditions: mouse, in vivo
hPBMC humanized NSG mice [3] = conditions: mouse, in vivo; remark: listed apart in the source
Protocol: Rectal temperature of the mice of Examples 5 and 6 was measured before treatment and again immediately before each time-point bleed. […] Rectal temperature was measured in hPMBCs humanized mice of 10 donors injected with control PBS, OKT3, and anti-CD28. The number of mice for each group was 2-5 and data are presented as mean±SEM.
Rectal temperature of the mice was measured before treatment and again immediately before each time-point bleed. Temperature was measured by the insertion of a rectal thermocouple probe and waiting until a stable reading was obtained.

With alemtuzumab [CAMPATH 1-H] as the substance, how does the “cytokine release in vivo” value (NK cells) read?
The value was “high levels of TNF, IFN-γ and IL-6”.

What does the source list for muromonab-CD3 [OKT3]?
cytokine levels in non-irradiated mice compared to irradiated mice (hPBMC humanized NSG mice [1]): consistently lower; major inflammatory cytokines in treated humanized mice (hPBMC humanized NSG mice [1]): significant increase in major inflammatory cytokines; level of each of IFN-γ, IL-10, IL-6, IL-2, IL-4, and TNF (hPBMC humanized NSG mice [1]; iv, 0.5 mg/kg): very high; clinical score (hPBMC humanized NSG mice [2]): 1; IFN-γ, IL-10, IL-6, and IL-4 levels versus control isotype antibody, in vitro (human PBMCs): much higher than levels determined after dosing with the control isotype antibody; cytokine responses in non-humanized mice (non-humanized mice): did not induce the cytokine responses; body temperature (rectal) (hPBMC humanized NSG mice [3]): below 36 °C

Which results are given for pembrolizumab?
cytokine levels in non-irradiated mice compared to irradiated mice (hPBMC humanized NSG mice [1]): consistently lower; cytokine levels (hPBMC humanized NSG mice [1]; iv, 2.5 mg/kg): within the error range of the level measured for the PBS control group; clinical score (hPBMC humanized NSG mice [2]; 5 mg/kg): the same as positive control; clinical score (hPBMC humanized NSG mice [2]; 10 mg/kg): the same as positive control
